Consider one molecule from publication PMC8542614.

Values joined by “and” are separate entries in the source; they are usually repeats but may differ in a detail not shown here. Equal values may be shown once. Read-outs that look alike come from different tables or passages of the source.

Assay [1] has as its target HCV E2 ectodomain (eE2), full length, residues 384-656, genotype J6 (HCV genotype J6). Kind of assay: ITC. In general terms: In ITC the heat of successive injections is recorded.
Assay [2] has the same target. Kind of assay: ITC. The source holds these as a separate data set.

B1: human CD81 large extracellular loop (hCD81-LEL), residues 112-202 (domain or fragment)
chain: GFVNKDQIAKDVKQFYDQALQQAVVDDDANNAKAVVKTFHETLDCCGSSTLTALTTSVLKNNLCPSGSNIISNLFKEDCHQKIDDLFSGKL
In assay [1], B1 displayed an equilibrium dissociation constant (Kd) of 773 nM. Further, in assay [2], the Kd is 681 nM; the dH was -7.89 kcal/mol and -6.65 kcal/mol; the stoichiometry N was 0.99 and 0.86.

For orientation: Kd means the constant that tells how readily two partners part at equilibrium. Low readings indicate a tighter complex, high ones a looser complex. What is called stoichiometry N is a count of units in the complex or per binding partner.
